Test results: patent US20050239169

T1: SELADIN-1
T1 chain: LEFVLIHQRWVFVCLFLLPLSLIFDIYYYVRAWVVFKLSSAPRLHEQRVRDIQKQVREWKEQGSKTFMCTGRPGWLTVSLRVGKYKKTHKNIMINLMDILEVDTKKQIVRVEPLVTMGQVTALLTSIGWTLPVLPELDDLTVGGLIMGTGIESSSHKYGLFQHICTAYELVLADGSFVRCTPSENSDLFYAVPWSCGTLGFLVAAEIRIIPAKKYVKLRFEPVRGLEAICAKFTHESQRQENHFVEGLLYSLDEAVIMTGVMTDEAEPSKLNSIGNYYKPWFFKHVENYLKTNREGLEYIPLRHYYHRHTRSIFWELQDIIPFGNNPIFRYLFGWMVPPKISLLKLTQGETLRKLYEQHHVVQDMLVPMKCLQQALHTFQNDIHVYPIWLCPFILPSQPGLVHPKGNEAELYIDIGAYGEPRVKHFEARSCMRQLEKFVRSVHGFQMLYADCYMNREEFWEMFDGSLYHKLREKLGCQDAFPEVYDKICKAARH

B1: caspase 6 (protein)
chain: AFYKREMFDPAEKYKMDHRRRGIALIFNHERFFWHLTLPERRGTCADRDNLTRRFSDLGFEVKCFNDLKAEELLLKIHEVSTVSHADADCFVCVFLSHGEGNHIYAYDAKIEIQTLTGLFKGDKCHSLVGKPKIFIIQACRGNQHDVPVIPLDVVDNQTEKLDTNITEVDAASVYTLPAGADFLMCYSVAEGYYSHRETVNGSWYIQDLCEMLGKYGSSLEFTELLTLVNRKVSQRRVDFCKDPSAIGKKQVPCFASMLTKKLHFFPKSN
B2: caspase 3 (protein)
chain: SGISLDNSYKMDYPEMGLCIIINNKNFHKSTGMTSRSGTDVDAANLRETFRNLKYEVRNKNDLTREEIVELMRDVSKEDHSKRSSFVCVLLSHGEEGIIFGTNGPVDLKKITNFFRGDRCRSLTGKPKLFIIQACRGTELDCGIETDSGVDDDMACHKIPVEADFLYAYSTAPGYYSWRNSKDGSWFIQSLCAMLKQYADKLEFMHILTRVNRKVATEFESFSFDATFHAKKQIPCIVSMLTKELYFYH

Target: T1, SELADIN-1

Row | Protein | in vitro cleavage of SELADIN-1 (fragment sizes)
1 | B1 | In vitro cleavage of SELADIN-1 by caspase 3 or 6 generated four different SELADIN-1 fragments of approximately 50, 40, 30 and 20 kDa, respectively
2 | B2 | In vitro cleavage of SELADIN-1 by caspase 3 or 6 generated four different SELADIN-1 fragments of approximately 50, 40, 30 and 20 kDa, respectively
